Measurements as given in publication PMC6262836.
“And” between values parts separate entries of the source, which are not always exact repeats. Equal entries are not always repeated. Where two headings read alike, the source gives them in different places.

Key:
Assay in all cases: SPR
[1] = molecular target: Recombinant human VEGFR-2 Fc chimera (human) (UniProt P35968)
[2] = molecular target: Recombinant human VEGFR-1 Fc chimera (human) (UniProt P17948)
[3] = molecular target: Recombinant human VEGFR-2 Fc chimera (human) (UniProt P35968); remark: listed apart in the source
[4] = molecular target: Recombinant human VEGFR-1 Fc chimera (human) (UniProt P17948); remark: listed apart in the source
[5] = molecular target: Recombinant human VEGFR-2 Fc chimera (human) (UniProt P35968); remark: listed apart in the source
[6] = molecular target: Recombinant human VEGFR-2 Fc chimera (human) (UniProt P35968); remark: listed apart in the source
[7] = molecular target: Recombinant mouse neuropilin-1 (NRP-1 monomer) (mouse) (UniProt P97333)
UniProt P97333, sequence (P97333 22-856): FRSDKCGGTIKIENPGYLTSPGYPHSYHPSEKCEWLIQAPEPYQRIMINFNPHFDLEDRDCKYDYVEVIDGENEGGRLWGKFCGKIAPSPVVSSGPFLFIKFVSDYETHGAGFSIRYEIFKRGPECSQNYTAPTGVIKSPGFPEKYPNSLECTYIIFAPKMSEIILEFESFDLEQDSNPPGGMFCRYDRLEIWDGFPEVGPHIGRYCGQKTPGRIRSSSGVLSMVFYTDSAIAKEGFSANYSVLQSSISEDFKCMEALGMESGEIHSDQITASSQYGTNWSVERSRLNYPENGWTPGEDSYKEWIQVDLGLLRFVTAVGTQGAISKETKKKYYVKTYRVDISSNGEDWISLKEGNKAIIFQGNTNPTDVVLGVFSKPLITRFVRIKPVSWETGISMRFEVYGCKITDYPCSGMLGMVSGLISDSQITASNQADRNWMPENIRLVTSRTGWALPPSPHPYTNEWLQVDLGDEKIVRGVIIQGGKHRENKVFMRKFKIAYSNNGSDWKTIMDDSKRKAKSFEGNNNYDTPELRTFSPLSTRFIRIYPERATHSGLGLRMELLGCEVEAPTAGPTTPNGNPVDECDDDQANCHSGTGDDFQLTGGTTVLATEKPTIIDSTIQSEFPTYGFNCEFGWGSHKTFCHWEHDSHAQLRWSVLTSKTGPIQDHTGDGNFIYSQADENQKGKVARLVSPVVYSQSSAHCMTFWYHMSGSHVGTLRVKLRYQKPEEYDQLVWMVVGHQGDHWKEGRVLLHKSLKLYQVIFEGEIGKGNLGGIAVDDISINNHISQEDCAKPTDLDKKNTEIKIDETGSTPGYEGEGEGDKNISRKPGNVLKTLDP

[8] = molecular target: Recombinant human VEGFR-1 Fc chimera (human) (UniProt P17948); remark: listed apart in the source
[9] = molecular target: Recombinant mouse neuropilin-1 (NRP-1 monomer) (mouse) (UniProt P97333); remark: listed apart in the source

UniProt P17948, sequence (P17948 27-758, change not shown): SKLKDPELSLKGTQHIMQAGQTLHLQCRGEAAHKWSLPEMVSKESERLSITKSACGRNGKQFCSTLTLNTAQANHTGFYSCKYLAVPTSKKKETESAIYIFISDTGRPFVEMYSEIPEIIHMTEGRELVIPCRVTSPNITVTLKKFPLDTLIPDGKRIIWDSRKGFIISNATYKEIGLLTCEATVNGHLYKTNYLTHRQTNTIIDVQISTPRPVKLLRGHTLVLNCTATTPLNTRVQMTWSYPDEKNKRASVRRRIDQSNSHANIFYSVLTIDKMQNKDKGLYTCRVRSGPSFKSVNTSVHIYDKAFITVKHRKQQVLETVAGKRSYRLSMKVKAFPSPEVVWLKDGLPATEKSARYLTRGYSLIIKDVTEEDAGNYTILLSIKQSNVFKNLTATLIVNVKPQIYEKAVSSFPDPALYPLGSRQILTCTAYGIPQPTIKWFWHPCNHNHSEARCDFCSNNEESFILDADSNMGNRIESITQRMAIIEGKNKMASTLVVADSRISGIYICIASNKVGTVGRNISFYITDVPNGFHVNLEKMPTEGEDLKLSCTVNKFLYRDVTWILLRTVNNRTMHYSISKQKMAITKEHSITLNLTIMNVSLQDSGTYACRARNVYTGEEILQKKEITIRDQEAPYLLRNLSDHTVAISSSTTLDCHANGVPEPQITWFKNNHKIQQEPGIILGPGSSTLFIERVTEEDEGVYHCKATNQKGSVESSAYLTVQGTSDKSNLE
UniProt P35968, sequence (P35968 20-764, change not shown): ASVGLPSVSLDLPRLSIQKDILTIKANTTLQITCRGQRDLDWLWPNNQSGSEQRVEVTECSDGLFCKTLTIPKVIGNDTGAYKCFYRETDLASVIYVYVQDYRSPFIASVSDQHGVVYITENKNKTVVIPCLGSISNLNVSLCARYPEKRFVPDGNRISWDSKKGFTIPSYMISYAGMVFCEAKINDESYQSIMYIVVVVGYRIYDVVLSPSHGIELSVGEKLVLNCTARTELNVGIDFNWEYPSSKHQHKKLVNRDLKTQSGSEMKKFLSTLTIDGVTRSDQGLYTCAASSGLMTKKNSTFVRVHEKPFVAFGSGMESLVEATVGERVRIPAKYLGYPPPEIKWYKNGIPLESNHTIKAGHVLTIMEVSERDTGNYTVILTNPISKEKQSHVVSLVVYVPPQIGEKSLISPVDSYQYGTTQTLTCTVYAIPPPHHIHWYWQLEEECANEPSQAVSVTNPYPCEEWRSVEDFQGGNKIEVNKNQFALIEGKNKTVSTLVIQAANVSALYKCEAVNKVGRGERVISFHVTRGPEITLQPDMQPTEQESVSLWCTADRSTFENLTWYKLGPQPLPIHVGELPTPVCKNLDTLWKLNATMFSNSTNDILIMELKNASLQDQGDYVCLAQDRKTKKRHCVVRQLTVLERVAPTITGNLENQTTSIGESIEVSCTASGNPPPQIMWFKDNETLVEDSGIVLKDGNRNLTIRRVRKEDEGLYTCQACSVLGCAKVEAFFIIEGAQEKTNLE

Kd [1] | Kd [2] | Kd [3] | kon [3] | Kd [4] | koff [4] | kon [4] | kon [5] | Kd [6] | Kd [7] | Kd [8] | koff [3] | Kd [9] | koff [9] | kon [9] | Substance
17 nM | 7.2 nM | 5.5 nM | 5.47e+06 M⁻¹ s⁻¹ | 6.2 nM | 0.0088 s⁻¹ | 1.43e+06 M⁻¹ s⁻¹ | 547000 M⁻¹ s⁻¹ |  |  |  |  |  |  |  | Recombinant human VEGF121 (ligand)
 |  | 8.6 nM | 1.76e+06 M⁻¹ s⁻¹ | 0.196 nM | 0.000569 s⁻¹ and 0.000592 s⁻¹ | 2.91e+06 M⁻¹ s⁻¹ |  | 18 nM | 28 nM | 3.7 nM | 0.0151 s⁻¹ | 25 nM | 0.065 s⁻¹ | 2.64e+06 M⁻¹ s⁻¹ | Recombinant human VEGF165 (ligand)
